Five molecules from patent US8173133B2, “Acyl pseudodipeptides which carry a functionalized auxiliary arm” (OM Pharma, priority 1999, dated 2012) can be followed below.

One data set relates to murine macrophage cells. Put plainly: nitric oxide production by murine macrophage cells (Griess). Format: cell-based, C57/BL6 mice. The source says:
Six-week old male C57/BL6 mice are killed by CO2 inhalation. The hip, femur, tibia and posterior appendage bones are removed. The bone marrow is extracted from the bone lumen by injecting Dulbecco's Modified Eagle Medium (DH medium) from the end portions which had been excised. The stem cells are washed and resuspended (approximate cell concentration 4000 cells/ml) in DH medium supplemented with 20% equine serum (SH) and 30% L929 cell supernatant. L929 is a murine fibroblast cell line the supernatant fluid of which is rich in growth factor for macrophage cells (M-CSF). The cell suspension is divided into Petri dishes which are incubated for 8 days in an incubator at 37° C. under 8% CO2 and a moisture saturated atmosphere.
After 8 days, the stem cells have differentiated into mature macrophage cells. The macrophage cells are scraped off by rapid cooling, washed and resuspended in DH medium supplemented with 5% foetal calf serum (FCS), amino acids and antibiotics. The cell density is adjusted to 700 000 cells/ml.
Products previously dissolved in DH medium supplemented with 5% FCS, amino acids and antibiotics are serially diluted directly in microtiter plates. The products are tested in triplicates and each microtiter plate comprises a negative control containing plain medium. The final volume in each well is 100 μl.
100 μl of cell suspension are added to diluted solutions of such products and the cells are incubated for 22 hours in an incubator at 37° C., under 8% CO2 and a moisture saturated atmosphere. At the end of the incubation period with the products, 100 μl of supernatant are withdrawn and the nitrite concentration is determined by running a Griess reaction.
100 μl of Griess reagent (5 mg/ml of sulfanilamide+0.5 mg/ml of N-(1-naphtylethylene diamine hydrochloride)) in 2.5% aq. phosphoric acid, are added to each well. The microtiter plates are read with a spectrophotometer at 562 nm wavelength against a reference sample at 690 nm. The nitrite concentration is proportional to nitric oxide content being formed. The nitrite content is determined based on a standard curve.
The results are given as mean value±standard deviation and plotted as a dose versus response curve.
From this dose versus response curve, 3 curve variables are computed:
Max: maximum curve amplitude and corresponding concentration
EC50: concentration corresponding to 50% of maximum amplitude
Min: lowest concentration inducing a significant proliferation corresponding to the blank±3× standard deviation value
Concentration values corresponding to EC50 and Min are determined from line segments joining different points on the curve.
If the curve has no plateau phase but an ascending configuration for the highest concentration being tested, a “>” sign is shown before “Max” and “EC50” values.
Background: Griess reagent forms a coloured azo dye with nitrite.

Data set [1] has as its system human peripheral blood mononuclear cells. Put plainly: α TNF production by human peripheral blood mononuclear cells. Format: cell-based. To be noted: 18 hours. How it is done: Mononuclear cells of peripheral blood are recovered from buffy coats of 6 healthy donors. Such buffy coat cells are resuspended and mononuclear cells are isolated by centrifugation on a Ficoll-Paque gradient (Amersham Pharmacia). Purified mononuclear cells are resuspended into RPMI-1640 medium supplemented with 10% FCS, antibiotics, mercaptoethanol and L-glutamine. Cell concentration is adjusted to 2×10^6 viable cells/ml
100 μl of each one of these solutions of acyl dipeptide-like compounds bearing an accessory functional side chain spacer, diluted 100-, 10- or 1-fold in RPMI medium 1640, are dispensed into a microtiter plate. Samples are tested in triplicates, and each microtiter plate includes a negative control made up of plain medium. Dilutions of E. coli LPS (ranging grom 1 to 0.00001 μg/ml) are used as a positive control.
100 μl of the cell suspension are added to each well containing product dilute solutions or control. Cells are incubated with the products for 18 hours in an incubator at 37° C., under 5% CO2 and a moisture saturated atmosphere.
At the end of the incubation period, microtiter plates are centrifuged, and the supernatant fluids are pooled and frozen at −80° C. as aliquots until time of ELISA assay.
Concentration of α TNF secreted by mononuclear cells is determined by chemiluminescent ELISA (QuantiGlo #QTAOO R&D kit). 4-fold supernatant fluid dilutions are dispensed into each well of the microtiter plate to which anti-αTNF antibodies are bound. The microtiter plate is incubated for 4 hours at room temperature. After washing, peroxidase-conjugated anti-human a TNF antibody is added. Following a 2 hour incubation period and thorough washing, a chemiluminescent substrate is added and chemilunescence is read after 20 minutes. α TNF content in the supernatant fluid is determined with respect to a standard curve covering the 7000 to 0.7 pg/ml range.
Results are expressed in pg/ml of α TNF produced. Results derive from an experiment representative of acyl-dipeptide-like compound activity

Data set [2] shares this test system. The data set can be described thus: inhibition of E. coli LPS-induced α TNF production in human peripheral blood mononuclear cells. Format: cell-based. As to conditions: product 10 μg/ml. On the procedure:
Mononuclear cells of peripheral blood are recovered from buffy coats of 6 healthy donors. Such buffy coat cells are resuspended and mononuclear cells are isolated by centrifugation on a Ficoll-Paque gradient (Amersham Pharmacia). Purified mononuclear cells are resuspended into RPMI-1640 medium supplemented with 10% FCS, antibiotics, mercaptoethanol and L-glutamine. Cell concentration is adjusted to 2×10^6 viable cells/ml.
Product mediated Inhibition is determined by preincubating those products with mononuclear cells, and adding, 1 hour later, serially diluted solutions of LPS capable of inducing α TFN production. […] E. coli LPS is serially diluted (10-fold dilution) to be in the range of 1 to 0.00001 μg/ml
50 μl of 10 μg/ml dilute product solutions in RPMI 1640 medium are dispensed into a microtiter plate. Each assay (10 μg/ml product concentration+dilute E. coli LPS) is run in triplicates and each microtiter plate includes a negative control comprised of plain medium. LPS-induced α TNF production (without inhibitor) is determined by adding E. coli LPS dilutions to RPMI medium.
100 μl of the cell suspension are added to each well containing dilutions of either product or control. Cells are incubated with the products for 1 hour in an incubator at 37° C., under 5% CO2 and a moisture saturated atmosphere.
At the end of the pre-incubation period, 50 μl of serially diluted solutions of E. coli LPS are added. Incubation of mononuclear cells with the product and LPS is extended for 18 hours. At the end of the cell activation period, the microtiter plates are centrifuged, and the supernatants are pooled and frozen at −80° C. as aliquots until time of ELISA assay.
Concentration of αTNF secreted by mononuclear cells is determined by chemiluminescent ELISA (QuantiGlo #QTAOO R&D kit). 4-fold dilutions of supernatant fluid are dispensed into each well of the microtiter plate to which anti-human αTNF antibodies are bound. The microtiter plate is incubated for 4 hours at room temperature. After washing, peroxidase-conjugated anti-human αTNF antibody is added. Following a 2 hour incubation period and a thorough washing, a chemiluminescent substrate is added and chemilunescence is read after 20 minutes. αTNF content in the supernatant fluid is determined with respect to a standard curve covering the 7000 to 0.7 pg/ml range.
Inhibition is characterized by the E. coli LPS concentration which elicits 50% production of α TNF during co-incubation in comparison to a control including only RPMI. This concentration increases as product inhibition activity becomes stronger. Knowing inhibition values of α TNF production, this concentration is given by calculating 100-(αTNF production induced by product and LPS)/(αTNF production induced by LPS alone)*100. From these inhibition data, concentration is determined by linear regression along the line segment which joins 2 LPS dilutions giving approx. 50% inhibition.
Product ability to inhibit α TNF production in mononuclear cells in response to LPS is further characterized by maximum inhibition. […] Results are calculated from a representative experience using all products.

In a further data set the test system is Spleenic cells. Put plainly: murine spleenic cell proliferation (3H-TdR take-up). As to conditions: 5 μg/ml, one day of culture, positive control. Format: cell-based, CBA mice. On the procedure:
Cell proliferation response is assessed by measuring triturated thymidine (^3H-TdR) take-up after 1 or 2 days of culture. Values reported in the table stand for the arithmetic mean±standard deviation of 4 cultures.

Data set [3] relates to Limulus Amoebocyte Lysate.
Another data set has as its system K562 cells. The data set can be described thus: activation of NK cell cytotoxicity against K562 target cells (LDH release). Format: cell-based, human. On the procedure: PBMC were recovered from buffy coats according to the procedure previously described in example 4.6. […] Cells were incubated under such conditions for 24 hours. K562 cells (human leukemia cell line, ATCC #CCL 243, 20110-2209 Manassas (Va.), U.S.A.) were maintained in culture using RPMI medium containing 10% FCS and subjected to 2 passages per week.
In order to make cytotoxicity measurement, PBMC and K562 cells were washed twice in HBSS and resuspended in Phenol Red-free RPMI medium containing 5% FCS. PBMC were divided into a round bottom 96-well plate so as to achieve a PBMC/target ratio of 20/1, 10/1 and 5/1 in 50 μl volume. 5000 K562 cells (target) were added in each well using 50 μl of Phenol Red-free RPMI. Final volume was 100 μl. The plate was centrifuged to promote contact then incubated at 37° C. for 4 hours.
Cytotoxicity was assayed using a non radioactive CytoTox 96 kit based on measuring LDH release during cell lysis (kit #G1780, batch #124100, Promega, Madison, Wis.) according to the supplier's instructions.
The percentage of cytotoxicity was calculated according to the following equation: […]

“(3R,9R)-3-[(R)-3-dodecanoyloxytetradecanoylamino]-4oxo-5-aza-9-[(R)-3-hydroxytetradecanoylamino]-1,10-diol 1-dihydrogenphosphate 10-(6-aminohexanoate) [OM-197-MP-AC (R, R)]” had a Max concentration in the data set on murine macrophage cells (concentration at maximum amplitude) of more than 100 µg/mL. For the same molecule, the EC50 conc with murine macrophage cells (concentration corresponding to 50% of maximum amplitude) was more than 15.32 µg/mL. For the same molecule, in the data set with murine macrophage cells (lowest concentration inducing a significant response), the Min concentration is 3.35 µg/mL. The “α TNF produced” value came out at 0 pg/mL in data set [1] (product 1 μg/ml), 88 pg/mL in data set [1] (product 10 μg/ml) and 84 pg/mL in data set [1] (product 100 μg/ml). For the same molecule, the “max. Inhibition” value in data set [2] amounted to 100%. Also, the “50% inhibition LPS” value in data set [2] (LPS concentration at which α TNF production is 50% of control) came to 0.68 µg/mL. For the same molecule, the “max. Inhibition LPS” value in data set [2] (LPS concentration corresponding to maximum inhibition) amounted to 0.0013 µg/mL.

Regarding Concanavalin A [reference compound], in the data set with Spleenic cells, the thymidine take-up is 37.5±6.2 ×10^3 cpm.

B1: Ovalbumin: antigen alone (ovalbumin, Fluka AG) (protein, UniProt P01012 2-386, looked up)
Ovalbumin: GSIGAASMEFCFDVFKELKVHHANENIFYCPIAIMSALAMVYLGAKDSTRTQINKVVRFDKLPGFGDSIEAQCGTSVNVHSSLRDILNQITKPNDVYSFSLASRLYAEERYPILPEYLQCVKELYRGGLEPINFQTAADQARELINSWVESQTNGIIRNVLQPSSVDSQTAMVLVNAIVFKGLWEKAFKDEDTQAMPFRVTEQESKPVQMMYQIGLFRVASMASEKMKILELPFASGTMSMLVLLPDEVSGLEQLESIINFEKLTEWTSSNVMEERKIKVYLPRMKMEEKYNLTSVLMAMGITDVFSSSANLSGISSAESLKISQAVHAAHAEINEAGREVVGSAEAGVDAASVSEEFRADHPFLFCIKHIATNAVLFFGRCVSP
In the case of B1, in data set [3], the “LAL EU/mg” value is less than 0.8 EU/mg and the “LAL ng of LPS equivalent per mg of product” value is on record as <0.064 ng of LPS equivalent per mg of product.

B2: OM-197-FV-ovalbumin: OM-197-FV7 coupled to ovalbumin by reductive amination (conjugate, UniProt P01012 2-386, looked up)
Ovalbumin: B1 Ovalbumin
modifications: OM-197-FV coupled by reductive amination
Consider B2, for which, in data set [3], the “LAL EU/mg” value stood at 99 EU/mg and the “LAL ng of LPS equivalent per mg of product” value is 8.21 ng of LPS equivalent per mg of product.

B3: IFN-γ: γ IFN (1000 U/ml) stimulus (protein, UniProt P01579 24-161, looked up)
Interferon gamma: QDPYVKEAENLKKYFNAGHSDVADNGTLFLGILKNWKEESDRKIMQSQIVSFYFKLFKNFKDDQSIQKSVETIKEDMNVKFFNSNKKKRDDFEKLTNYSVTDLNVQRKAIHELIQVMAELSPAAKTGKRKRSQMLFRG
As for B3, the “% cytotoxicity” value in the data set on K562 cells (Ratio PBMC:K562 5.1) was determined as 17.9%; with K562 cells (Ratio PBMC:K562 10.1), 29.4%; in the data set with K562 cells (Ratio PBMC:K562 20.1), 39.3%. Further, the figures for the “Optical density at 490 nm, K562 + PBMC” value in the data set with K562 cells (Ratio PBMC:K562 5.1), in the data set with K562 cells (Ratio PBMC:K562 10.1) and in the data set with K562 cells (Ratio PBMC:K562 20.1) were 1.68, 1.9 and 2.1, respectively. Also, the “Optical density at 490 nm, PBMC alone” value with K562 cells (Ratio PBMC:K562 5.1) is 0.035; in the data set with K562 cells (Ratio PBMC:K562 10.1) it was 0.064; in the data set on K562 cells (Ratio PBMC:K562 20.1, stimulus 24 hours), 0.101.
